Literature values in paper PMC2446434.

Molecular target: CD200 (Mus musculus) (UniProt O54901)
Test: SPR

UniProt O54901, sequence (O54901 31-232): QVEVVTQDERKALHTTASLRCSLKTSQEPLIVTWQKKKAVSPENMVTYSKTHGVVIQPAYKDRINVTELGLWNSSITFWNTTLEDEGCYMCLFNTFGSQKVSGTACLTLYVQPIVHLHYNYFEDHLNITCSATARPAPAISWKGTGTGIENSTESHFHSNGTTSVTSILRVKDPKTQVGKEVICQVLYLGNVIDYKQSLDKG

- Kd: 4 µM
Substance: CD200R (from UniProt Q9ES57)
